According to patent publication US20220143024A1, “METHODS OF USING IMIPRIDONES” (Board of Regents, The University of Texas System, priority 2019, published 2022):

Assays:
Assay in all cases: BioID-MS +ONC201
C12orf10 (human) = C12orf10 (human) (UniProt Q9HB07)
PET112 (human) = PET112 (human) (UniProt O75879)
ECHS1 (human) = ECHS1 (human) (UniProt P30084)
TST (human) = TST (human) (UniProt Q16762)
GPT2 (human) = GPT2 (human) (UniProt Q8TD30)
SPRYD4 (human) = SPRYD4 (human) (UniProt Q8WW59)
RPS15A (human) = RPS15A (human) (UniProt P62244)
PDPR (human) = PDPR (human) (UniProt Q8NCN5)
DHRS4 (human) = DHRS4 (human) (UniProt Q9BTZ2)
VWA8 (human) = VWA8 (human) (UniProt A3KMH1)
MDH2 (human) = MDH2 (human) (UniProt P40926)
ALDH1L2 (human) = ALDH1L2 (human) (UniProt Q3SY69)
DCAKD (human) = DCAKD (human) (UniProt Q8WVC6)
CPOX (human) = CPOX (human) (UniProt P36551)
GBAS (human) = GBAS (human) (UniProt O75323)
LETM1 (human) = LETM1 (human) (UniProt O95202)
MRRF (human) = MRRF (human) (UniProt Q96E11)
MRPL10 (human) = MRPL10 (human) (UniProt Q7Z7H8)
FOXRED1 (human) = FOXRED1 (human) (UniProt Q96CU9)
NME4 (human) = NME4 (human) (UniProt O00746)
AARS2 (human) = AARS2 (human) (UniProt Q5JTZ9)
PDK3 (human) = PDK3 (human) (UniProt Q15120)
EARS2 (human) = EARS2 (human) (UniProt Q5JPH6)
NDUFS8 (human) = NDUFS8 (human) (UniProt O00217)
MARS2 (human) = MARS2 (human) (UniProt Q96GW9)
SUCLA2 (human) = SUCLA2 (human) (UniProt Q9P2R7)
MRPL19 (human) = MRPL19 (human) (UniProt P49406)
MRPS36 (human) = MRPS36 (human) (UniProt P82909)
GRSF1 (human) = GRSF1 (human) (UniProt Q12849)
ATPAF2 (human) = ATPAF2 (human) (UniProt Q8N5M1)
DHTKD1 (human) = DHTKD1 (human) (UniProt Q96HY7)
NDUFV3 (human) = NDUFV3 (human) (UniProt P56181)
TBRG4 (human) = TBRG4 (human) (UniProt Q969Z0)
XPNPEP3 (human) = XPNPEP3 (human) (UniProt Q9NQH7)
SUCLG1 (human) = SUCLG1 (human) (UniProt P53597)
HSD17B10 (human) = HSD17B10 (human) (UniProt Q99714)
PDE12 (human) = PDE12 (human) (UniProt Q6L8Q7)
MRPL47 (human) = MRPL47 (human) (UniProt Q9HD33)
NDUFS7 (human) = NDUFS7 (human) (UniProt O75251)
MGME1 (human) = MGME1 (human) (UniProt Q9BQP7)
ARG2 (human) = ARG2 (human) (UniProt P78540)
PCK2 (human) = PCK2 (human) (UniProt Q16822)
OXCT1 (human) = OXCT1 (human) (UniProt P55809)
COQ6 (human) = COQ6 (human) (UniProt Q9Y2Z9)
VARS2 (human) = VARS2 (human) (UniProt Q5ST30)
NFUl (human) = NFUl (human) (UniProt Q9UMS0)
PPIF (human) = PPIF (human) (UniProt P30405)
NDUFS6 (human) = NDUFS6 (human) (UniProt O75380)
NDUFA2 (human) = NDUFA2 (human) (UniProt O43678)
ABCB7 (human) = ABCB7 (human) (UniProt O75027)
IDH3A (human) = IDH3A (human) (UniProt P50213)

Chain of OXCT1 (human) (P55809 40-520 limits assumed): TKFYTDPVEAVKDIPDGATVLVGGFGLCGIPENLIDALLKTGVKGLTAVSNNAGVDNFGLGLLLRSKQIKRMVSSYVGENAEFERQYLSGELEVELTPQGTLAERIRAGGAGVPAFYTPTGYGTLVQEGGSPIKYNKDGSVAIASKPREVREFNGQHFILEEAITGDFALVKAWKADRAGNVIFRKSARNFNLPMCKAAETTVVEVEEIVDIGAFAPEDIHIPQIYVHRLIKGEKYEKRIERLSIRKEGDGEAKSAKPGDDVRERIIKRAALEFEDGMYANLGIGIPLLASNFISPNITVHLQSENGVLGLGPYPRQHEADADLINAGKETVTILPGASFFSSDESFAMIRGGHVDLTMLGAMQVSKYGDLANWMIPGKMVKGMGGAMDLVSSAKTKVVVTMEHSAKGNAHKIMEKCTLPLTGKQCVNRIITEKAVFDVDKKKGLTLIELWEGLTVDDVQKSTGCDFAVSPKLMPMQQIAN
Chain of VWA8 (human) (A3KMH1 29-1905 limits assumed): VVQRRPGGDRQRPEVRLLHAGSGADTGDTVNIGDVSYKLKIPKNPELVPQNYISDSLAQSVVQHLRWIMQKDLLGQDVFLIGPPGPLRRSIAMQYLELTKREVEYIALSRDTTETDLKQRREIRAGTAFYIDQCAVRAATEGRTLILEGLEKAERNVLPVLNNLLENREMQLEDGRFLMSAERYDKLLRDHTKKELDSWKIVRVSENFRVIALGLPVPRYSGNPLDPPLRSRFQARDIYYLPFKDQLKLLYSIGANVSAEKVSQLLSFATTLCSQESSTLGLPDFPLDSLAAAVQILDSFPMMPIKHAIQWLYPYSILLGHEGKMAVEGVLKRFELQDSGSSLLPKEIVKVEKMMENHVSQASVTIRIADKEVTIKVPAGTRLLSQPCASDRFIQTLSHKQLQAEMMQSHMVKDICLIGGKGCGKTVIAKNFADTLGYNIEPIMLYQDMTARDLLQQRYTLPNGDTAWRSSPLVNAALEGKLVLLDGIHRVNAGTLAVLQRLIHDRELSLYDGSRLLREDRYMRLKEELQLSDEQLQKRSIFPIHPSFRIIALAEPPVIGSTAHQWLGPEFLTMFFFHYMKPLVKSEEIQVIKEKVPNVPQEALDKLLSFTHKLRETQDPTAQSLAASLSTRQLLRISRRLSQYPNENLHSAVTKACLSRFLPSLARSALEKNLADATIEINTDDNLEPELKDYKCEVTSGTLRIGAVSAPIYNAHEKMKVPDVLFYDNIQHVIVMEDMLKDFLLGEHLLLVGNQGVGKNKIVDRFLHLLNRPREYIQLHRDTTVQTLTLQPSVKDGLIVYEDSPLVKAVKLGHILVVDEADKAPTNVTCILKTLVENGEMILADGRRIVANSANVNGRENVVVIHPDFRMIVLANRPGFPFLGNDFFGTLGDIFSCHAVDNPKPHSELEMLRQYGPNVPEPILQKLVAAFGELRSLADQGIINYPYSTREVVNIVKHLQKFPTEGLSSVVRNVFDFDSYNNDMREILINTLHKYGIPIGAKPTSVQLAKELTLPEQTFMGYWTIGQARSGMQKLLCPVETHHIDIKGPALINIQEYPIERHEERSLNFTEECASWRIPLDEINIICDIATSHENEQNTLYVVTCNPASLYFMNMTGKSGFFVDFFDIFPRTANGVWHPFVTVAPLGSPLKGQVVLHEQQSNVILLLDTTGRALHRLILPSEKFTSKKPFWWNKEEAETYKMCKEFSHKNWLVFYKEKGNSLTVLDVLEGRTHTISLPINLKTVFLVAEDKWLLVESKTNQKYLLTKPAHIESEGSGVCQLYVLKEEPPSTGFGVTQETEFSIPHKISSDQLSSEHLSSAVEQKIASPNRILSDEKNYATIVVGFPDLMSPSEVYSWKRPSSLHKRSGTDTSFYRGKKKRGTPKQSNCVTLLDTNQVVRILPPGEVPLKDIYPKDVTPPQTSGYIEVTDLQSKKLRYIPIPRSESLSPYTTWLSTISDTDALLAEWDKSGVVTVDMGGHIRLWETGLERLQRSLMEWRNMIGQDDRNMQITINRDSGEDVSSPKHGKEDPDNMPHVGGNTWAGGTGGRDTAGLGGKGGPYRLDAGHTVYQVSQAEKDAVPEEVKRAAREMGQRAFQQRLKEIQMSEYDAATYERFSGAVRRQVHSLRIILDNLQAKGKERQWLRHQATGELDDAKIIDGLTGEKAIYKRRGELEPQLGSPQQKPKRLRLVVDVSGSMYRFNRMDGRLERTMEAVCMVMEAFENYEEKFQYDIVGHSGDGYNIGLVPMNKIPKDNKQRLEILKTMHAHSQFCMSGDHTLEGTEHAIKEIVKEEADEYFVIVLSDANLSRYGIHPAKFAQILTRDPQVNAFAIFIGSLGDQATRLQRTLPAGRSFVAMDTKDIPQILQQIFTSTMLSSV
Chain of VARS2 (human) (Q5ST30 27-1063 limits assumed): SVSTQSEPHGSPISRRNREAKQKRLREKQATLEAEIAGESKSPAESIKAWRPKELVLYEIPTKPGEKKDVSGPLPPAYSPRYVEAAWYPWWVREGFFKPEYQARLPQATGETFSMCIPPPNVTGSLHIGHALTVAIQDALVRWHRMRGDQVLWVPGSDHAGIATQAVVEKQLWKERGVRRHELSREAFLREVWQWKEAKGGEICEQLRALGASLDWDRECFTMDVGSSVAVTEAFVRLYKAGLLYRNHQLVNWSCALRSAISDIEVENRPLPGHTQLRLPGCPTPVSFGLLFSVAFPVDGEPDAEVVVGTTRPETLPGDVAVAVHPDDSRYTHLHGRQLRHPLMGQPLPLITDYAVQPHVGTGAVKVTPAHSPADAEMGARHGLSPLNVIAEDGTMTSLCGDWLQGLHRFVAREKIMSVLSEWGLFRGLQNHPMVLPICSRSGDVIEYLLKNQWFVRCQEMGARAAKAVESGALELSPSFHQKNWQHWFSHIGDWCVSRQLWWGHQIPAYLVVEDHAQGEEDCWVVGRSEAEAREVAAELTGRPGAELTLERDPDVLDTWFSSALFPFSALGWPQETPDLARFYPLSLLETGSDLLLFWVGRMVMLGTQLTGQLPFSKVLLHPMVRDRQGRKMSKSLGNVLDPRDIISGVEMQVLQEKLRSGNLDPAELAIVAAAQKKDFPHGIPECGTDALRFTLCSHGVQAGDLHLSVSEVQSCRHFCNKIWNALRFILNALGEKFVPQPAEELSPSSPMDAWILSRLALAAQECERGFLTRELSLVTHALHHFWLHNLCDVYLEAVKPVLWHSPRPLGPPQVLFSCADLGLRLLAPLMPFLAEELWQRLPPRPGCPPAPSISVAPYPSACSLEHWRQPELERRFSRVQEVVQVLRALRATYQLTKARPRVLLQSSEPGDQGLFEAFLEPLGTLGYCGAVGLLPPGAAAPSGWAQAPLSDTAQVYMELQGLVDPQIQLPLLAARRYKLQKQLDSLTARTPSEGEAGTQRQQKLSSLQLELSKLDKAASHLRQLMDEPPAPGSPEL
Chain of PDE12 (human) (Q6L8Q7 43-609 limits assumed): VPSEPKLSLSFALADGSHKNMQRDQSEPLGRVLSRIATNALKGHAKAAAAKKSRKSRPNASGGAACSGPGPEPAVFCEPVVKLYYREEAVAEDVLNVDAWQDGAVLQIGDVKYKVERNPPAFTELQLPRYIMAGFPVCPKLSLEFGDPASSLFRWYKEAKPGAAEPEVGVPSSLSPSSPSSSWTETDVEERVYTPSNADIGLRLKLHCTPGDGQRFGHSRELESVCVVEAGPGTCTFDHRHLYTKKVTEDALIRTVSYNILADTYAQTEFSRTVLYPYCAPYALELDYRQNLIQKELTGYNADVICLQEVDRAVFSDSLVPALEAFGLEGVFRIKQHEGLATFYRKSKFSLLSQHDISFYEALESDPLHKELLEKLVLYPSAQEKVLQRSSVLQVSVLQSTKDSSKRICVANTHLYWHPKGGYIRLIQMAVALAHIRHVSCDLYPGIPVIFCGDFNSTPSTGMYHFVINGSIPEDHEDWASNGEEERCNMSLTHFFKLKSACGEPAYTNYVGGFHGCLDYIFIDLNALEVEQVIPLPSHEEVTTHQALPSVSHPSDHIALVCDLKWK
Chain of PPIF (human) (P30405 30-207 limits assumed): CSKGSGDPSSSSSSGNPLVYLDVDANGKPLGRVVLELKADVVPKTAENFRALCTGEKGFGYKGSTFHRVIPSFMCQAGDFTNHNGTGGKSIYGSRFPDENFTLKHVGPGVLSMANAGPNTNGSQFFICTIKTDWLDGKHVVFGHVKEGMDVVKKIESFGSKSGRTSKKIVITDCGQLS
Chain of LETM1 (human) (O95202 116-739 limits assumed): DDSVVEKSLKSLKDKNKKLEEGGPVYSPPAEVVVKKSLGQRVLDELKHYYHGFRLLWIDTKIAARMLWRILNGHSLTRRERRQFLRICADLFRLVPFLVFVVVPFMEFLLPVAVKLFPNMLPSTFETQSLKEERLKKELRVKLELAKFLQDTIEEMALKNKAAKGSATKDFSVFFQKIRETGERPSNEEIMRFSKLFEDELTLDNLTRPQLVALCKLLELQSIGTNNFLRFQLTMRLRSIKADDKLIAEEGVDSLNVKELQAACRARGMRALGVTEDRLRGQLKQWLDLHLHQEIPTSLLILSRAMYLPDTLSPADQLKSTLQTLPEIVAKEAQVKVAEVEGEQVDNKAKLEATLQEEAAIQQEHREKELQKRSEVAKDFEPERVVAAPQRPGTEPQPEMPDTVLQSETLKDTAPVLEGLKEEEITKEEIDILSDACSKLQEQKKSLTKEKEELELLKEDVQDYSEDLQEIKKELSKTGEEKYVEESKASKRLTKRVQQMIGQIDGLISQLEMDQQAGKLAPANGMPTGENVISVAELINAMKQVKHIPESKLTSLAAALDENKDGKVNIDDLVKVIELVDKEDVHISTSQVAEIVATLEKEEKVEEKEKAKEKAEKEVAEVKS
Chain of MDH2 (human) (P40926 25-338 limits assumed): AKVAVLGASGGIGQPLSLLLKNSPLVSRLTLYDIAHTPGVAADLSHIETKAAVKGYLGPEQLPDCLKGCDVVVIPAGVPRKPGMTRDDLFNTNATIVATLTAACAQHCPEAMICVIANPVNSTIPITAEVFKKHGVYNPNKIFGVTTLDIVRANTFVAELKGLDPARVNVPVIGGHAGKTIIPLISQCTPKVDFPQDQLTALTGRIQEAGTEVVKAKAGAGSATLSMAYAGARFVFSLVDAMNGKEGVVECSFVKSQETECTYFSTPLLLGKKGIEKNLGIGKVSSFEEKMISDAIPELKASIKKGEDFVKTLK

Log2 Fold change (vs control) (C12orf10 (human)): -3.75 log2 | Log2 Fold change (vs control) (PET112 (human)): -3.03 log2 | Log2 Fold change (vs control) (ECHS1 (human)): -1.49 log2 | Log2 Fold change (vs control) (TST (human)): -5.55 log2 | Log2 Fold change (vs control) (SPRYD4 (human)): -1.26 log2 | Log2 Fold change (vs control) (RPS15A (human)): -0.69 log2 | Log2 Fold change (vs control) (PDPR (human)): -4.95 log2 | Log2 Fold change (vs control) (DHRS4 (human)): -2.32 log2 | Log2 Fold change (vs control) (VWA8 (human)): 1.69 log2 | Log2 Fold change (vs control) (MDH2 (human)): -0.24 log2 | Log2 Fold change (vs control) (ALDH1L2 (human)): -6.04 log2 | Log2 Fold change (vs control) (DCAKD (human)): -3.75 log2 | Log2 Fold change (vs control) (CPOX (human)): -2.12 log2 | Log2 Fold change (vs control) (GBAS (human)): -2.79 log2 | Log2 Fold change (vs control) (LETM1 (human)): -0.94 log2 | Log2 Fold change (vs control) (MRRF (human)): -5.49 log2 | Log2 Fold change (vs control) (MRPL10 (human)): -4.46 log2 | Log2 Fold change (vs control) (FOXRED1 (human)): -4.09 log2 | Log2 Fold change (vs control) (NME4 (human)): -1.16 log2 | Log2 Fold change (vs control) (AARS2 (human)): -5.73 log2 | Log2 Fold change (vs control) (PDK3 (human)): -1.55 log2 | Log2 Fold change (vs control) (EARS2 (human)): -1.29 log2 | Log2 Fold change (vs control) (NDUFS8 (human)): -2.73 log2 | Log2 Fold change (vs control) (MARS2 (human)): -4.52 log2 | Log2 Fold change (vs control) (SUCLA2 (human)): -0.71 log2 | Log2 Fold change (vs control) (MRPL19 (human)): -3.51 log2 | Log2 Fold change (vs control) (MRPS36 (human)): -2.58 log2 | Log2 Fold change (vs control) (GRSF1 (human)): -6.34 log2 | Log2 Fold change (vs control) (ATPAF2 (human)): -2.58 log2 | Log2 Fold change (vs control) (DHTKD1 (human)): -5.25 log2 | Log2 Fold change (vs control) (NDUFV3 (human)): -8.18 log2 | Log2 Fold change (vs control) (TBRG4 (human)): 0.28 log2 | Log2 Fold change (vs control) (XPNPEP3 (human)): -1.63 log2 | Log2 Fold change (vs control) (SUCLG1 (human)): -1.44 log2 | Log2 Fold change (vs control) (HSD17B10 (human)): 0.01 log2 | Log2 Fold change (vs control) (PDE12 (human)): -5.78 log2 | Log2 Fold change (vs control) (MRPL47 (human)): -4.52 log2 | Log2 Fold change (vs control) (NDUFS7 (human)): -1.81 log2 | Log2 Fold change (vs control) (MGME1 (human)): 0.27 log2 | Log2 Fold change (vs control) (ARG2 (human)): -0.16 log2 | Log2 Fold change (vs control) (PCK2 (human)): -5.32 log2 | Log2 Fold change (vs control) (OXCT1 (human)): -2.58 log2 | Log2 Fold change (vs control) (COQ6 (human)): -3.7 log2 | Log2 Fold change (vs control) (VARS2 (human)): -5.52 log2 | Log2 Fold change (vs control) (NFUl (human)): -4.32 log2 | Log2 Fold change (vs control) (PPIF (human)): -1.81 log2 | Log2 Fold change (vs control) (NDUFS6 (human)): -6.32 log2 | Log2 Fold change (vs control) (NDUFA2 (human)): -6.32 log2 | Log2 Fold change (vs control) (ABCB7 (human)): -0.45 log2 | Log2 Fold change (vs control) (IDH3A (human)): -2 log2
Substance: FlagBirA-ClpP (WT) (from UniProt P06709 1-321; Q16740 57-277) (enzyme)
Log2 Fold change (vs control) (GPT2 (human)): -3.7 log2
